We go through five molecules from patent US20230101046A1, “ANAPLASTIC LYMPHOMA KINASE CHIMERIC ANTIGEN RECEPTORS AND METHODS OF USE” (The Children's Medical Center Corporation, priority 2020, published 2023).

Substitutions are numbered along the chain they refer to.

One test concerns the target Mouse-ALK (Mus musculus, UniProt P97793). Put plainly: Mouse-ALK binding of ALK antibodies. As for the experimental part: (§1) Seven (7) ALK-specific antibodies (ALK Antibodies #1-#7) directed against the extracellular domain of human ALK receptor were evaluated for use in CAR-based immunotherapy.
Another test concerns the target ALK (Homo sapiens, UniProt Q9UM73). Put plainly: ALK phosphorylation / ALK signaling activity of ALK antibodies. The test is classed as cell-based. As for the experimental part:
as §1

ALK, sequence (Q9UM73 19-1620): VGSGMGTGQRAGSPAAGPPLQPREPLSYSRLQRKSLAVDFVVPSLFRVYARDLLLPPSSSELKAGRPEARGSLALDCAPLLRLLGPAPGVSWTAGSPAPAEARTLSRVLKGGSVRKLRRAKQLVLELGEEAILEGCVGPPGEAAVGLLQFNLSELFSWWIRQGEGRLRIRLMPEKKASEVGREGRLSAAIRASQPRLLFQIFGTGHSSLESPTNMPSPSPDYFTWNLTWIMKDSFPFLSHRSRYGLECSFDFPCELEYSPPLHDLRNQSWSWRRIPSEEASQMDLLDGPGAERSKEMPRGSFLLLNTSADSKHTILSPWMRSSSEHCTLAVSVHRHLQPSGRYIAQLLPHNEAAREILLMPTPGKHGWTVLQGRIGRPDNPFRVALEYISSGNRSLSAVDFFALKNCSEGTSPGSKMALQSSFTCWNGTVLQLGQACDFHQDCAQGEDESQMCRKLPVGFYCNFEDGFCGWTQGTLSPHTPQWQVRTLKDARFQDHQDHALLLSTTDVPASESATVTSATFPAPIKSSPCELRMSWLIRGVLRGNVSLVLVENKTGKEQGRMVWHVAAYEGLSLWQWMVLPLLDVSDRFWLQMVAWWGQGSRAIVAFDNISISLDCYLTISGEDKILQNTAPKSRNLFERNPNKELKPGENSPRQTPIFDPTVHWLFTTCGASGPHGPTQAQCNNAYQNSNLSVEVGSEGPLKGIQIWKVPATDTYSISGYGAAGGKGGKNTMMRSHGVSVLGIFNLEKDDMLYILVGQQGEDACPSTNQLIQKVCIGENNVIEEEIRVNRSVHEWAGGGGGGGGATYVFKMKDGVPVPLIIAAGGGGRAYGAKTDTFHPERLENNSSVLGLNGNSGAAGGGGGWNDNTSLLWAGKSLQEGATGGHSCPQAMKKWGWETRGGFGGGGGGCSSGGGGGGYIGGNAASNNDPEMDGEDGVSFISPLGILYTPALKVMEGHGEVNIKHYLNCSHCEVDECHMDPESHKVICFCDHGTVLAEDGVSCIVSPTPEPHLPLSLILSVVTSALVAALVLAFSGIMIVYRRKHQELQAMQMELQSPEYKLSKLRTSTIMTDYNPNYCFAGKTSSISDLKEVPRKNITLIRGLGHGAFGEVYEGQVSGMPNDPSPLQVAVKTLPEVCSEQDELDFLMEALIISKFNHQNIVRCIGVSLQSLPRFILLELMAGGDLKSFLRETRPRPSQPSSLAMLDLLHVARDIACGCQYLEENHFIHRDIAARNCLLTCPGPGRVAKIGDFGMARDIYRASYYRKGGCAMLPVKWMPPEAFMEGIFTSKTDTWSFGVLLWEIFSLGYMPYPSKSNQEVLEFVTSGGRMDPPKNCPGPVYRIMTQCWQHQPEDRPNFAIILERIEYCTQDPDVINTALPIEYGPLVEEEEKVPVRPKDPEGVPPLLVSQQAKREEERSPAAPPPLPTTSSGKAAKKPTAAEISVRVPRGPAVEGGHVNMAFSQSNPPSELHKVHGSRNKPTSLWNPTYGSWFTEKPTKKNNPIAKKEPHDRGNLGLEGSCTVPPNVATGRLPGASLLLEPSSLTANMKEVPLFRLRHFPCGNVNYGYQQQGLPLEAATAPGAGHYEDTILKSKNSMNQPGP
Mouse-ALK, sequence (P97793 19-1621): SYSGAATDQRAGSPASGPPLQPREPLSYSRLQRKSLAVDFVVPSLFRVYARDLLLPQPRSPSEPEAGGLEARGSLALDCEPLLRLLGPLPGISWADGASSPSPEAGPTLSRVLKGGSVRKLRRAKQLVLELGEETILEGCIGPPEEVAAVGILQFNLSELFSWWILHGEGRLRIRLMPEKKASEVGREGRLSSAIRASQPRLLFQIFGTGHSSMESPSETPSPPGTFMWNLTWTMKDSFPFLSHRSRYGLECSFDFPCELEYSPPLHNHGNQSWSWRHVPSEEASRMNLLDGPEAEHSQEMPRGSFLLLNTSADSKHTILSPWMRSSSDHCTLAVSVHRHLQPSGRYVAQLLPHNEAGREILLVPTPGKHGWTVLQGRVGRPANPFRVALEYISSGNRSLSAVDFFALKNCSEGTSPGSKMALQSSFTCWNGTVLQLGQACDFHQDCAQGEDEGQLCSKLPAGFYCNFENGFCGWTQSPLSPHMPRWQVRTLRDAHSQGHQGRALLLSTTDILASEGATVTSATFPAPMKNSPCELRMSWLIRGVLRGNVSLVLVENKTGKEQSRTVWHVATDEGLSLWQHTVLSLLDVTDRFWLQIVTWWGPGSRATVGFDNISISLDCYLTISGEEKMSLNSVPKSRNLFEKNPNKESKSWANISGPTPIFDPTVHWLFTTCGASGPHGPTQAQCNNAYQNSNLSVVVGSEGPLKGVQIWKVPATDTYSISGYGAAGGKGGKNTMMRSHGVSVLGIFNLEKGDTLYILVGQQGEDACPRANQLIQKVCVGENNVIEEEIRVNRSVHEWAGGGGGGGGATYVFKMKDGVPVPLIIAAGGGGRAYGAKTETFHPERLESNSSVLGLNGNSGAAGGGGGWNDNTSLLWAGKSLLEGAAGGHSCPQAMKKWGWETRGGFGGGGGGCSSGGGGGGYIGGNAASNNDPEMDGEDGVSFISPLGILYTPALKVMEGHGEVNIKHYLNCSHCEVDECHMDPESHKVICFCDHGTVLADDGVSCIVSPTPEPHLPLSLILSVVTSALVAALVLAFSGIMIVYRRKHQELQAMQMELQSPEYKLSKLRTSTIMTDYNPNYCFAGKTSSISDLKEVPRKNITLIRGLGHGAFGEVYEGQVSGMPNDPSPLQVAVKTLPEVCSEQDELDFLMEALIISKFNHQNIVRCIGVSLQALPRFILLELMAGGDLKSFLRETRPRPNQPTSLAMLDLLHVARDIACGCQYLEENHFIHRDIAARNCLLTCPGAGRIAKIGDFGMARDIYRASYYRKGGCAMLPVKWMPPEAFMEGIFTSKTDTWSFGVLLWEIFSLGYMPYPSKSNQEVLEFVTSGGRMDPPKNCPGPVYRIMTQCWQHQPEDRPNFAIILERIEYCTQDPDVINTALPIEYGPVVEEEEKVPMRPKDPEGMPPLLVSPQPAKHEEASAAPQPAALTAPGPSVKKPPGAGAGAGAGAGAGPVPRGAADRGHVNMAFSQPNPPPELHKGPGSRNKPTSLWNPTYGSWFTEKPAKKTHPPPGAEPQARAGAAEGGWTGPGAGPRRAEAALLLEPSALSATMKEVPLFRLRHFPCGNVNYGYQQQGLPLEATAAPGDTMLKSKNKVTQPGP

B1: ALK Antibody 6: mouse hybridoma anti-ALK antibody against extracellular domain of human ALK receptor; VL/VH sequences in Tables 1 and 2 (antibody, V domains shown)
VH: DVKLVESGEGLVKPGGSLKLSCAASGFTFSSYAMSWVRQTPEKRLEWVTYISSGGDYIYYADTVKGRFTISRDNARNTLYLQMSSLKSEDTAMYYCTRERIWLRRFFDVWGTGTTVTVSS
VL: DIVMTQSQKFMSTSVGDRVSITCKASQNVGTAVAWYQLKPGQSPKLLIYSASNRFTGVPDRFTGSGSGTDFTLTISNMQSEDLADYFCQQYSSYPLTFGSGTKLEIKR
Turning to B1, the “recognition of human and murine ALK” value with Mouse-ALK was “recognize both the human and murine ALK”. In the test with ALK, the “activity on ALK signaling” value is reported as “inhibited ALK signaling”.

B2: ALK Antibody 7: mouse hybridoma anti-ALK antibody against extracellular domain of human ALK receptor; VL/VH sequences in Tables 1 and 2 (antibody, V domains shown)
VH: QVQLQQSGAELAKPGASVKLSCKASGYTFTSYWMHWVKQRPGQGLEWIGYINPSSGYTKYNQKFKDKATLTADKSSSTAYMQLSSLTFEDSAVYYCARDYYGSSSWFAYWGQGTLVTVSA
VL: DIVMTQSQKFMSTSVGDRVSVTCKASQNVGTNVAWYQQKPGHSPKALIYSASYRYSGVPDRFTGSGSGTDFTLTISNVQSEDLAEYFCQRYNSYPYMFTFGGGTKLEIKR
Turning to B2, the “recognition of human and murine ALK” value with Mouse-ALK was “recognize both the human and murine ALK”. Also, the “activity on ALK signaling” value with ALK is recorded as “agonistic of ALK signaling”.

B3: ALK Antibody 5: mouse hybridoma anti-ALK antibody against extracellular domain of human ALK receptor; VL/VH sequences in Tables 1 and 2 (antibody, V domains shown)
VH: B2 VH with N52K, F88Y
VL: B2 VL with K9R, H42Q, R90Q, F98Y
Consider B3, for which the “recognition of human and murine ALK” value in the test with Mouse-ALK is “recognize both the human and murine ALK”. Further, the “activity on ALK signaling” value with ALK is listed as “inhibited ALK signaling”.

B4: ALK Antibody 3: mouse hybridoma anti-ALK antibody against extracellular domain of human ALK receptor; VL/VH sequences in Tables 1 and 2 (antibody, V domains shown)
VH: B2 VH with S31N, F88Y
VL: B2 VL with K9R, H42Q, I75V, R90Q, F98Y
As for B4, in the test with ALK, the “activity on ALK signaling” value is “inhibited ALK signaling”.

B5: ALK Antibody 1: mouse hybridoma anti-ALK antibody against extracellular domain of human ALK receptor; VL/VH sequences in Tables 1 and 2 (antibody, V domains shown)
VH: QVQLQQSGAELVKPGASVKISCKASGYAFSSYWMNWVKQRPGKGLEWIGQIYPGDGDTNYNGKFKGKATLTADKSSSTAYMQLSSLTSEDSAVYFCASYYYGSKAYWGQGTLVTVSA
VL: DIQMTQSPASLAASVGETVTITCRASENIYYSLAWYQQKQGKSPQLLIYNANSLEDGVPSRFSGSGSGTQYSMKINSMQPEDTATYFCKQAYDVPFTFGSGTKLEIKR
As to B5, the “activity on ALK signaling” value in the test with ALK is listed as “no effect on ALK signaling”.
